# B1: Cellular retinoic acid binding protein II (CRABP-II) (natural protein)
# chain: MPNFSGNWKIIRSENFEELLKVLGVNVMLRKIAVAAASKPAVEIKQEGDTFYIKTSTTVRTTEINFKVGEEFEEQTVDGRPCKSLVKWESENKMVCEQKLLKGEGPKTSWTRELTNDGELILTMTADDVVCTRVYVRE
# How the values were obtained:
# CYP2C8 Supersomes = CYP2C8 Supersomes (UniProt P10632)
# CYP3A4 Supersomes = CYP3A4 Supersomes (UniProt P08684)
# Recombinant CYP26B1 = target: T1, Recombinant CYP26B1 (UniProt Q9NR63)
# T1 sequence: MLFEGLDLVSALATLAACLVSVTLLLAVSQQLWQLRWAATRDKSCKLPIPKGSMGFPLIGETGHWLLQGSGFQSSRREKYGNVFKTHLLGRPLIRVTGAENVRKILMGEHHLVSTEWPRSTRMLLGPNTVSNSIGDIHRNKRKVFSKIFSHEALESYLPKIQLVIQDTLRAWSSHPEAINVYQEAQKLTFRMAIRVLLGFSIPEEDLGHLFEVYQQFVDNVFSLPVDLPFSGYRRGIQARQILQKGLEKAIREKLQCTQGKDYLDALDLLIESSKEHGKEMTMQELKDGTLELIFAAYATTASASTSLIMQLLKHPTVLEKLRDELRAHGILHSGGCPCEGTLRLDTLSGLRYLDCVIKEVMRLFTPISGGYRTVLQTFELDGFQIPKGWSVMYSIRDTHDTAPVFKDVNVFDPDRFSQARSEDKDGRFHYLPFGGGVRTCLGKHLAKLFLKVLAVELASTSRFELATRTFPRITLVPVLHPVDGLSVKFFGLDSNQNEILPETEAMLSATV
# Chain of UniProt P10632 (P10632 whole entry): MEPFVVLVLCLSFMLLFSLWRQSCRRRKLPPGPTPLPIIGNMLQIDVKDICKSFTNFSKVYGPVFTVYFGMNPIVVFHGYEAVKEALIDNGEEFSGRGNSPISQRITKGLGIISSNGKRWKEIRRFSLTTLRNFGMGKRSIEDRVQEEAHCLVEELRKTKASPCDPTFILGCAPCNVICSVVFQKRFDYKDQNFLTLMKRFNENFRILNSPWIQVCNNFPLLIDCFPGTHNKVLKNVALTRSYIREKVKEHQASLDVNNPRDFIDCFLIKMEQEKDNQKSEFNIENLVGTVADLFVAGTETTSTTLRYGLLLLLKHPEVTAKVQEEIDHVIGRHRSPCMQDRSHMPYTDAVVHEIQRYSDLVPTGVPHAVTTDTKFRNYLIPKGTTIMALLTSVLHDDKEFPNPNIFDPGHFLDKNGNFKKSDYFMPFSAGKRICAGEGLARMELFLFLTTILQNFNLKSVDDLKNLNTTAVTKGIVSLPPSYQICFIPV
# Chain of UniProt P08684 (P08684 whole entry): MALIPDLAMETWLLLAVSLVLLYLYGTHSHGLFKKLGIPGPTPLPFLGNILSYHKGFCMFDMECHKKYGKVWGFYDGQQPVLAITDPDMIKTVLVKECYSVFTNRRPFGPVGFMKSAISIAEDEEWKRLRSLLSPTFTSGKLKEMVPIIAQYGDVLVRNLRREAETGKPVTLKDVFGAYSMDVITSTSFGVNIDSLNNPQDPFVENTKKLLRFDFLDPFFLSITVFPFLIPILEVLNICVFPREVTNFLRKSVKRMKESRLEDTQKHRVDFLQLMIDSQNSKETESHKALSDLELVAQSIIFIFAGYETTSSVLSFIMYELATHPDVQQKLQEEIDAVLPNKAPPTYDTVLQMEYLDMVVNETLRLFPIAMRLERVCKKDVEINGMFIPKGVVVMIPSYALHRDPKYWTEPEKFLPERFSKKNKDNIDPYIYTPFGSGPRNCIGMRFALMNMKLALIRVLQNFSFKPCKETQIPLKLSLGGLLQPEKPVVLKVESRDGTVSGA
Molecule,decrease of 4-OH-RA formation by CYP2C8 with 1 uM holo-CRABP-I against free atRA (CYP2C8 Supersomes) [%],decrease of 4-OH-RA formation by CYP3A4 with 1 uM holo-CRABP-I against free atRA (CYP3A4 Supersomes) [%],apparent Km of 4-OH-RA formation by CYP26B1 with holo-CRABP-I as substrate (Recombinant CYP26B1) [µM],apparent Km of 4-OH-RA formation by CYP26B1 with holo-CRABP-II as substrate (Recombinant CYP26B1) [µM]
Cellular retinoic acid binding protein I (CRABP-I) (from UniProt P29762 1-137) (natural protein),98,98,0.0217,–
B1,–,–,–,0.0243
